Measurements published in patent US20020115606A1 (MYRIAD GENETICS, published 2002).

How the values were obtained:
[1] = target: T1, neuroendocrine protein Discs Large 3 (NE-dlg, DLG3) amino acids 94-506 (yeast; human, UniProt P04386 768-881; Q92796 94-506); assay: yeast two-hybrid
T1 construct: also called SAP102
T1 sequence (looked up): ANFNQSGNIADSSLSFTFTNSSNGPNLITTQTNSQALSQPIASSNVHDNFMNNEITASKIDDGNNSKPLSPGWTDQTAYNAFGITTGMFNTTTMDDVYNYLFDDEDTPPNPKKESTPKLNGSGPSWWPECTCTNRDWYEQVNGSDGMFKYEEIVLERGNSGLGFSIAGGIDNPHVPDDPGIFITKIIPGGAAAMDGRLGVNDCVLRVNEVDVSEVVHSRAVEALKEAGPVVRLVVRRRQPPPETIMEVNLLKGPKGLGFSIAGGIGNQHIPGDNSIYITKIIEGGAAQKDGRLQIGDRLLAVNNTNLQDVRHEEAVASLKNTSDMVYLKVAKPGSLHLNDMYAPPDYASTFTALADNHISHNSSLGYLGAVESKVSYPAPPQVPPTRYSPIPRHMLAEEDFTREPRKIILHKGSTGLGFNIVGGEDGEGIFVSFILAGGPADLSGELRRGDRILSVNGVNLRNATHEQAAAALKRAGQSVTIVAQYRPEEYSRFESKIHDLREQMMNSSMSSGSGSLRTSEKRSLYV
Description: (§1) The principles and methods of the yeast two-hybrid systems have been described in detail (Bartel and Fields, 1997). The following is thus a description of the particular procedure that was used, which was applied to all proteins.
(§2) The cDNA encoding the bait protein was generated by PCR from brain cDNA. Gene-specific primers were synthesized with appropriate tails added at their 5′ ends to allow recombination into the vector pGBTQ. The tail for the forward primer was 5′-[…]-3′ (SEQ ID NO: 1) and the tail for the reverse primer was 5′-[…]-3′ (SEQ ID NO:2). […] The new construct was selected directly in the yeast J693 for its ability to drive tryptophane synthesis (genotype of this strain: Mat α, ade2, his3, leu2, trp1, URA3::GAL1-lacZ LYS2::GAL1-HIS3 gal4del gal80del cyhR2). In these yeast cells, the bait is produced as a C-terminal fusion protein with the DNA binding domain of the transcription factor Gal4 (amino acids 1 to 147). A total human brain (person) cDNA library cloned into the yeast expression vector pACT2 was purchased from Clontech (human brain […] cDNA, cat. # HL4004AH), transformed into the yeast strain J692 (genotype of this strain: Mat α, ade2, his3, leu2, trp1, URA3::GAL1-lacZ LYS2::GAL1-HIS3 gal4del gal80del cyhR2), and selected for the ability to drive leucine synthesis. In these yeast cells, each cDNA is expressed as a fusion protein with the transcription activation domain of the transcription factor Gal4 (amino acids 768 to 881) and a 9 amino acid hemagglutinin epitope tag. J693 cells […] expressing the bait were then mated with J692 cells […] expressing proteins from the brain library. The resulting diploid yeast cells expressing proteins interacting with the bait protein were selected for the ability to synthesize tryptophane, leucine, histidine, and β-galactosidase.

[2] = target: T2, transcription factor HTF4A amino acids 296-494 (yeast; human, UniProt P04386 768-881; Q99081 296-494); assay: yeast two-hybrid
T2 sequence (looked up): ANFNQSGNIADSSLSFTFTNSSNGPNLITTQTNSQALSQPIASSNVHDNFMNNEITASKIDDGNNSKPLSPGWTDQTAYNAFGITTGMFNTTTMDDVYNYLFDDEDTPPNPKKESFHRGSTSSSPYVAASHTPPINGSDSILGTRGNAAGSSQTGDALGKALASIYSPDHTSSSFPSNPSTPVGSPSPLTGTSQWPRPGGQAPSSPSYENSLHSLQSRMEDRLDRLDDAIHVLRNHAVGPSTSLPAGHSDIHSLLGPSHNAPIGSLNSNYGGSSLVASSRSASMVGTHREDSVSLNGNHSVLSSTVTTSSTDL
Description: as §1, §2

B1: bcr (break point cluster) amino acids 1206-1271, C-terminal bait (other, UniProt P04386 1-147, looked up)
chain: MKLLSSIEQACDICRLKKLKCSKEKPKCAKCLKNNWECRYSPKTKRSPLTRAHLTEVESRLERLEQLFLLIFPREDLDMILKMDSLQDIKALLTGLFVQDNVNKDAVTDRLASVETDMPLTLRQHRISATSSSEESSNKGQRQLTVSVFGPTLLRPSEKESKLPANPSQPITMTDSWSLEVMSQVQVLLYFLQLEAIPAPDSKRQSILFSTEV
binding result [1]: binds
binding result [2]: binds
